One assay concerns the target T1, human IL-12 (human, UniProt P29459 23-219; P29460 23-328).
T1 sequence (looked up) 1: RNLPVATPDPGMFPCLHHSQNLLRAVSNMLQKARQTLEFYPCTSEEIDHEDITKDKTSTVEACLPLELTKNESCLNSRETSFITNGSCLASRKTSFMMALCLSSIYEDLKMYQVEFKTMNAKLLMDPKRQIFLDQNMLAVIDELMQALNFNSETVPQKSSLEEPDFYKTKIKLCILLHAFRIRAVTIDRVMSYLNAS
T1 sequence (looked up) 2: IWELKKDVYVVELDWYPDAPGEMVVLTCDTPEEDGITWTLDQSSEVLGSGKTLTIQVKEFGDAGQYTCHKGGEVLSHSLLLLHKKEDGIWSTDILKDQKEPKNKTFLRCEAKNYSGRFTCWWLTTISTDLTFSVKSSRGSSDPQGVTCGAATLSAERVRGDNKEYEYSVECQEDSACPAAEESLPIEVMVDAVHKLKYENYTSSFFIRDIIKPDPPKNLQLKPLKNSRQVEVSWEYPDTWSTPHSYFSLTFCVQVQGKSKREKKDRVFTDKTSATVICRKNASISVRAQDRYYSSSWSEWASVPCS
The assay can be described thus: cell-based or functional assay.

Assay [1] deals with T2, natural human IL-23 from activated THP-1 cells (human, UniProt P29460 23-328).
T2 sequence 1: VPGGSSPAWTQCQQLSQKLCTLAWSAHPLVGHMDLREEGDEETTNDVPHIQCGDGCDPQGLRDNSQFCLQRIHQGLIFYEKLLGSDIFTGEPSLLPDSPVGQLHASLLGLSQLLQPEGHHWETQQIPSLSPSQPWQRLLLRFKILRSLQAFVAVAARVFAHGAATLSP
T2 sequence 2: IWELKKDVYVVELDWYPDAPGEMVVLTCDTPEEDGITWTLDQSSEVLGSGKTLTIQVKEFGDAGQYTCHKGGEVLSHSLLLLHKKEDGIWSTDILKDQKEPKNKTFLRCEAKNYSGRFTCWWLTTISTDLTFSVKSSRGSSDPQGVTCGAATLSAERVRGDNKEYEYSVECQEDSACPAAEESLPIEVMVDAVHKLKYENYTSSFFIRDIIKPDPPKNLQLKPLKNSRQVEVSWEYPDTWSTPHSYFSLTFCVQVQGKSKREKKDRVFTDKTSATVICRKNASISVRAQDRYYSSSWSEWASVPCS
The assay can be described thus: cell-based or functional assay.

In assay [2] the target is T3, recombinant human IL-23 (human, UniProt P29460 23-328).
T3 sequence 1: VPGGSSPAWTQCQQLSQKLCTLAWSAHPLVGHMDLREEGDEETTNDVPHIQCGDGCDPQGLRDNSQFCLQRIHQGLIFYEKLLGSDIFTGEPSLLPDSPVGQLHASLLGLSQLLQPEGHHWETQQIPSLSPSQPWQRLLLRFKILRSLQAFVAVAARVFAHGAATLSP
T3 sequence 2: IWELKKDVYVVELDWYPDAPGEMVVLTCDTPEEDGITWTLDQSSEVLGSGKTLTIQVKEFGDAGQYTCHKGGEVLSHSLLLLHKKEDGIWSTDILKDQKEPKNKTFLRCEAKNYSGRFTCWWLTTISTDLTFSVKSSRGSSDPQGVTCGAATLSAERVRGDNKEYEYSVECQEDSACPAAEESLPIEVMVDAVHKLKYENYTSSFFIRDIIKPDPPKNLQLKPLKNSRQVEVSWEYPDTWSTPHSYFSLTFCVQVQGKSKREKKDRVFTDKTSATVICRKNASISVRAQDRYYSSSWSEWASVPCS
Description: cell-based or functional assay.

Another assay has as its target T4, Human IL-23 no linker (human, UniProt P29460 23-328).
T4 construct: also called recombinant IL-23 without linker
T4 sequence 1: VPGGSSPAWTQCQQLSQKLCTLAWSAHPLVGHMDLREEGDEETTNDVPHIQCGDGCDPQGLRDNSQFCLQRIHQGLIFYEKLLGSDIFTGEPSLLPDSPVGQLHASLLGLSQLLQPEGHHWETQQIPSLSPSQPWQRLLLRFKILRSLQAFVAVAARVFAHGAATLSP
T4 sequence 2: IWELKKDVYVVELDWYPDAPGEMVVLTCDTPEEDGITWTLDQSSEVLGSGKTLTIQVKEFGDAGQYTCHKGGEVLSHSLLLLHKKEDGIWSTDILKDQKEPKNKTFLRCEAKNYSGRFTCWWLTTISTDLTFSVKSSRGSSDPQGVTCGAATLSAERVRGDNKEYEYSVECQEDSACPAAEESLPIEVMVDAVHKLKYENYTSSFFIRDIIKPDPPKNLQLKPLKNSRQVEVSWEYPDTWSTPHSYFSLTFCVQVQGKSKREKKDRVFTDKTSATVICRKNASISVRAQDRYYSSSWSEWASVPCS
Description: SPR, ProteOn XPR36, global 1:1 fit. As for the experimental part: B) Affinities were measured for humanized antibodies derived from mouse antibody 6B8.

A further assay addresses T5, cynomologous IL-23 (cynomolgus monkey).
T5 construct: also called cynomolgus IL-23; cynomolgus monkey IL-23
The assay can be described thus: SPR, ProteOn XPR36, global 1:1 fit.

The target in assay [3] is T3, recombinant human IL-23. Description: cell-based or functional assay. The source holds these as a separate data set.

This note sets out measurements from patent US20210317201A1 (Boehringer Ingelheim, published 2021).

Values joined by “and” are separate entries in the source; they are usually repeats but may differ in a detail not shown here. Equal entries are not always repeated.

B1: Antibody C (antibody, human IgG1, kappa, L234A L235A, V domains shown)
VH: QVQLVQSGAEVKKPGSSVKVSCKASGYTFTDQTIHWMRQAPGQGLEWIGYIYPRDDSPKYNENFKGKVTITADKSTSTAYMELSSLRSEDTAVYYCAIPDRSGYAWFIYWGQGTLVTVSS
VL: DIQMTQSPSSLSASVGDRVTITCKASRDVAIAVAWYQQKPGKVPKLLLFWASTRHTGVPDRFSGSGSGTDFTLTISSLQPEDLADYYCHQYSSYPFTFGQGTKLEIKR
notes: Humanized 6B8, human IgG1-KO (L234A/L235A) / kappa; also called 6B8-IgG1KO-2 with IgK-65; 6B8CVH-02 / 6B8CVK-65
For the molecule B1, the “Average pg/ml IFN-γ +/- Standard Deviation, human PHA-derived T cell blasts with 1 ng/ml IL-12 (no antibody: 532 +/- 51; unstimulated: 87 +/- 7)” value with human IL-12 amounted to 495 pg/ml IFN-γ. Moreover, in assay [1], the “IC50, IL-23 stimulated IL-17 production from mouse splenocytes” value (from here on “IC50, IL-23 stimulated IL-17 production”) is 0.016 nM and 0.032 nM. For the same molecule, the “IC50, IL-23 induced STAT3 phosphorylation in human DB cells (phospho-STAT3 ELISA)” value with recombinant human IL-23 [2] is 0.132 nM and 0.08 nM. Moreover, in the assay with Human IL-23 no linker, the equilibrium dissociation constant (Kd) came out at 0.0363 nM, the koff came out at 1.65e-05 s⁻¹ and the kon came to 454000 M⁻¹ s⁻¹. Moreover, in the assay with cynomologous IL-23, the affinity, expressed as Kd, was 0.0029 nM; the koff was 9.36e-06 s⁻¹; the association rate constant (kon) was 3.23e+06 M⁻¹ s⁻¹.

B2: Antibody D (antibody, human IgG1, kappa, L234A L235A, V domains shown)
VH: QVQLVQSGAEVKKPGSSVKVSCKASGFTFTDQTIHWVRQAPGQGLEWMGYIYPRDDSPKYNENFKGKVTLTADKSTSTAYMELSSLRSEDTAVYYCAIPDRSGYAWFIYWGQGTLVTVSS
VL: DIQMTQSPSSLSASVGDRVTITCKASRDVAIAVAWYQQKPGKVPKLLLFWASTRHTGVPDRFSGSGSGTDFTLTISSLQPEDLADYYCHQYSSYPFTFGQGTKLEIKR
notes: Humanized 6B8, human IgG1-KO (L234A/L235A) / kappa; also called 6B8-IgG1KO-5 with IgK-65; 6B8CVH-05 / 6B8CVK-65
With B2, the “Average pg/ml IFN-γ +/- Standard Deviation, human PHA-derived T cell blasts with 1 ng/ml IL-12 (no antibody: 532 +/- 51; unstimulated: 87 +/- 7)” value in the assay with human IL-12 was 539 pg/ml IFN-γ. Besides, the “IC50, IL-23 stimulated IL-17 production” value in the assay with recombinant human IL-23 [3] is 0.236 nM and 0.225 nM and 0.614 nM and 0.458 nM. Besides, in assay [1], the “IC50, IL-23 stimulated IL-17 production” value was 0.133 nM and 0.125 nM. For the same molecule, the “IC50, IL-23 induced STAT3 phosphorylation in human DB cells (phospho-STAT3 ELISA)” value in the assay with recombinant human IL-23 [2] turned out to be 0.158 nM. For the same molecule, in the assay with Human IL-23 no linker, the dissociation constant (Kd) is 0.135 nM, the koff stood at 4.93e-05 s⁻¹ and the kon worked out at 366000 M⁻¹ s⁻¹. For the same molecule, in the assay with cynomologous IL-23, the Kd is 0.0159 nM, the koff worked out at 3.29e-05 s⁻¹ and the kon is 2.07e+06 M⁻¹ s⁻¹.
